Data as given in patent US6818617.

B1: EC-3 protein, heterodimeric disintegrin from Echis carinatus suchoreki venom (protein)
chain 1: NSVHPCCDPVKCEPREGEHCISGPCCRNCYFLRAGTVCKRAVGDDVDDYCSGITPDCPRNRYKGKED
chain 2: NSVHPCCDPVKCEPREGEHCISGPCCRNCKFLNAGTICKRAMLDGLNDYCTGISTDCPRNRYKGKED

Tests used:
[1] = biological target: integrin α4β1 on CHO cells transfected with human α4 (human) (UniProt P13612); test: inhibition of cell adhesion: A2 (CHOα4+) cells to immobilized VCAM-1
[2] = biological target: integrin α4β1 on CHO cells transfected with human α4 (human) (UniProt P13612); test: inhibition of cell adhesion: α4B2 (CHO α4+/α5-) cells to immobilized VCAM-1
[3] = biological target: integrin α4β1 on Jurkat cells, P13612
[4] = biological target: integrin α4β1 on Jurkat cells, P13612; test: inhibition of cell adhesion: Jurkat cells to immobilized VCAM-1

Row | Binder | IC50 [1] | IC50 [2] | fold more active than MLDG [3] | IC50 [4]
1 | B1 | 0.03 µM | 0.03 µM | – | –
2 | ECESGPCCRNCKFLKEGTICKRARGDDMDDYCNGKTCDCPRNPHKGPAT [Echistatin] | > 10 µM | > 10 µM | – | –
3 | CKRAMLDGLNDYC (modifications not checked) [cyclic peptide …] | – | – | 5 fold | 1000 µM
